US9580731B2, “Methods of producing 7-carbon chemicals via c1 carbon chain elongation associated with coenzyme B synthesis” (INVISTA North America S.á r.l., priority 2012, dated 2017)

Assay: Carboxylate reductase activity assay, N7-acetyl-7-aminoheptanoate to N7-acetyl-7-aminoheptanal (NADPH consumption)
Format: biochemical
Conditions: 2 mM N7-acetyl-7-aminoheptanoate, enhanced by gene product of sfp, room temperature, 20 min, against empty vector control, FIG. 12
Protocol: The activity of each of the N-terminal His-tagged carboxylate reductases of SEQ ID NOs: 3, 6, and 7 (see Examples 4, and FIG. 7) for converting N7-acetyl-7-aminoheptanoate to N7-acetyl-7-aminoheptanal was assayed in triplicate in a buffer composed of a final concentration of 50 mM HEPES buffer (pH=7.5), 2 mM N7-acetyl-7-aminoheptanoate, 10 mM MgCl2, 1 mM ATP, and 1 mM NADPH. The assays were initiated by adding purified carboxylate reductase and phosphopantetheine transferase or the empty vector control to the assay buffer containing the N7-acetyl-7-aminoheptanoate then incubated at room temperature for 20 min. The consumption of NADPH was monitored by absorbance at 340 nm.

B1: SEQ ID NO 6: Mycobacterium massiliense carboxylate reductase, Genbank Accession No. EIV11143.1 (protein)
chain: MTNETNPQQEQLSRRIESLRESDPQFRAAQPDPAVAEQVLRPGLHLSEAIAALMTGYAERPALGERARELVIDQDGRTTLRLLPRFDTTTYGELWSRTTSVAAAWHHDATHPVKAGDLVATLGFTSIDYTVLDLAIMILGGVAVPLQTSAPASQWTTILAEAEPNTLAVSIELIGAAMESVRATPSIKQVVVFDYTPEVDDQREAFEAASTQLAGTGIALETLDAVIARGAALPAAPLYAPSAGDDPLALLIYTSGSTGAPKGAMHSENIVRRWWIREDVMAGTENLPMIGLNFMPMSHIMGRGTLTSTLSTGGTGYFAASSDMSTLFEDMELIRPTALALVPRVCDMVFQRFQTEVDRRLASGDTASAEAVAAEVKADIRDNLFGGRVSAVMVGSAPLSEELGEFIESCFELNLTDGYGSTEAGMVFRDGIVQRPPVIDYKLVDVPELGYFSTDKPHPRGELLLKTDGMFLGYYKRPEVTASVFDADGFYMTGDIVAELAHDNIEIIDRRNNVLKLSQGEFVAVATLEAEYANSPVVHQIYVYGSSERSYLLAVVVPTPEAVAAAKGDAAALKTTIADSLQDIAKEIQLQSYEVPRDFIIEPQPFTQGNGLLTGIAKLARPNLKAHYGPRLEQMYAEIAEQQAAELRALHGVDPDKPALETVLKAAQALLGVSSAELAADAHFTDLGGDSLSALSFSDLLRDIFAVEVPVGVIVSAANDLGGVAKFVDEQRHSGGTRPTAETVHGAGHTEIRAADLTLDKFIDEATLHAAPSLPKAAGIPHTVLLTGSNGYLGHYLALEWLERLDKTDGKLIVIVRGKNAEAAYGRLEEAFDTGDTELLAHFRSLADKHLEVLAGDIGDPNLGLDADTWQRLADTVDVIVHPAALVNHVLPYNQLFGPNVVGTAEIIKLAITTKIKPVTYLSTVAVAAYVDPTTFDEESDIRLISAVRPIDDGYANGYGNAKWAGEVLLREAHDLCGLPVAVFRSDMILAHSRYTGQLNVPDQFTRLILSLIATGIAPGSFYQAQTTGERPLAHYDGLPGDFTAEAITTLGTQVPEGSEGFVTYDCVNPHADGISLDNFVDWLIEAGYPIARIDNYTEWFTRFDTAIRGLSEKQKQHSLLPLLHAFEQPSAAENHGVVPAKRFQHAVQAAGIGPVGQDGTTDIPHLSRRLIVKYAKDLEQLGLL
modifications: Mycobacterium massiliense
  carboxylate reductase activity for converting N7-acetyl-7-aminoheptanoate to N7-acetyl-7-aminoheptanal (NADPH consumption, absorbance at 340 nm): accepted N7-acetyl-7-aminoheptanoate as substrate
